# Source: patent US8748182B2, “Mutant proteins and methods for producing them” (Heptares Therapeutics Limited, priority 2007, dated 2014)
# Where a chain is given by its changes, count along the chain named. Numbers in names are those of the source.
# B1: S362A: NTR point mutant (protein, UniProt P20789 1-424, looked up, variant S362A)
# Neurotensin receptor type 1: MHLNSSVPQGTPGEPDAQPFSGPQSEMEATFLALSLSNGSGNTSESDTAGPNSDLDVNTDIYSKVLVTAIYLALFVVGTVGNSVTAFTLARKKSLQSLQSTVHYHLGSLALSDLLILLLAMPVELYNFIWVHHPWAFGDAGCRGYYFLRDACTYATALNVASLSVERYLAICHPFKAKTLMSRSRTKKFISAIWLASALLAIPMLFTMGLQNRSGDGTHPGGLVCTPIVDTATVKVVIQVNTFMSFLFPMLVISILNTVIANKLTVMVHQAAEQGRVCTVGTHNGLEHSTFNMTIEPGRVQALRHGVLVLRAVVIAFVVCWLPYHVRRLMFCYISDEQWTTFLFDFYHYFYMLTNALFYVSAAINPILYNLVSANFRQVFLSTLACLCPGWRHRRKKRPTFSRKPNSMSSNHAFSTSATRETLY
# B2: A90L: NTR point mutant (protein, UniProt P20789 1-424, looked up, variant A90L)
# Neurotensin receptor type 1: B1 Neurotensin receptor type 1 with A90L, A362S
# B3: F358A: NTR point mutant (protein, UniProt P20789 1-424, looked up, variant F358A)
# Neurotensin receptor type 1: B1 Neurotensin receptor type 1 with F358A, A362S
# B4: H103A: NTR point mutant (protein, UniProt P20789 1-424, looked up, variant H103A)
# Neurotensin receptor type 1: B1 Neurotensin receptor type 1 with H103A, A362S
# B5: 1116A: NTR point mutant (Ile 116) (protein, UniProt P20789 1-424, looked up, variant I116A)
# Neurotensin receptor type 1: B1 Neurotensin receptor type 1 with I116A, A362S
# B6: Y351A: NTR point mutant (protein, UniProt P20789 1-424, looked up, variant Y351A)
# Neurotensin receptor type 1: B1 Neurotensin receptor type 1 with Y351A, A362S
# B7: D113A: NTR point mutant (protein, UniProt P20789 1-424, looked up, variant D113A)
# Neurotensin receptor type 1: B1 Neurotensin receptor type 1 with D113A, A362S
# B8: A120L: NTR point mutant (protein, UniProt P20789 1-424, looked up, variant A120L)
# Neurotensin receptor type 1: B1 Neurotensin receptor type 1 with A120L, A362S
# B9: G209A: NTR point mutant (protein, UniProt P20789 1-424, looked up, variant G209A)
# Neurotensin receptor type 1: B1 Neurotensin receptor type 1 with G209A, A362S
# B10: S100A: NTR point mutant (protein, UniProt P20789 1-424, looked up, variant S100A)
# Neurotensin receptor type 1: B1 Neurotensin receptor type 1 with S100A, A362S
# B11: T179A: NTR point mutant (protein, UniProt P20789 1-424, looked up, variant T179A)
# Neurotensin receptor type 1: B1 Neurotensin receptor type 1 with T179A, A362S
# B12: L111A: NTR point mutant (protein, UniProt P20789 1-424, looked up, variant L111A)
# Neurotensin receptor type 1: B1 Neurotensin receptor type 1 with L111A, A362S
# B13: S108A: NTR point mutant (protein, UniProt P20789 1-424, looked up, variant S108A)
# Neurotensin receptor type 1: B1 Neurotensin receptor type 1 with S108A, A362S
# B14: T207A: NTR point mutant (protein, UniProt P20789 1-424, looked up, variant T207A)
# Neurotensin receptor type 1: B1 Neurotensin receptor type 1 with T207A, A362S
# B15: F147A: NTR point mutant (protein, UniProt P20789 1-424, looked up, variant F147A)
# Neurotensin receptor type 1: B1 Neurotensin receptor type 1 with F147A, A362S
# B16: L205A: NTR point mutant (protein, UniProt P20789 1-424, looked up, variant L205A)
# Neurotensin receptor type 1: B1 Neurotensin receptor type 1 with L205A, A362S
# B17: W391A: NTR point mutant (protein, UniProt P20789 1-424, looked up, variant W391A)
# Neurotensin receptor type 1: B1 Neurotensin receptor type 1 with A362S, W391A
# B18: S182A: NTR point mutant (protein, UniProt P20789 1-424, looked up, variant S182A)
# Neurotensin receptor type 1: B1 Neurotensin receptor type 1 with S182A, A362S
# B19: L72A: NTR point mutant (protein, UniProt P20789 1-424, looked up, variant L72A)
# Neurotensin receptor type 1: B1 Neurotensin receptor type 1 with L72A, A362S
# B20: N262A: NTR point mutant (protein, UniProt P20789 1-424, looked up, variant N262A)
# Neurotensin receptor type 1: B1 Neurotensin receptor type 1 with N262A, A362S
# B21: D139A: NTR point mutant (protein, UniProt P20789 1-424, looked up, variant D139A)
# Neurotensin receptor type 1: B1 Neurotensin receptor type 1 with D139A, A362S
# B22: L256A: NTR point mutant (protein, UniProt P20789 1-424, looked up, variant L256A)
# Neurotensin receptor type 1: B1 Neurotensin receptor type 1 with L256A, A362S
# B23: V268A: NTR point mutant (protein, UniProt P20789 1-424, looked up, variant V268A)
# Neurotensin receptor type 1: B1 Neurotensin receptor type 1 with V268A, A362S
# B24: M293A: NTR point mutant (protein, UniProt P20789 1-424, looked up, variant M293A)
# Neurotensin receptor type 1: B1 Neurotensin receptor type 1 with M293A, A362S
# B25: D345A: NTR point mutant (protein, UniProt P20789 1-424, looked up, variant D345A)
# Neurotensin receptor type 1: B1 Neurotensin receptor type 1 with D345A, A362S
# B26: P399A: NTR point mutant (protein, UniProt P20789 1-424, looked up, variant P399A)
# Neurotensin receptor type 1: B1 Neurotensin receptor type 1 with A362S, P399A
# B27: M181A: NTR point mutant (protein, UniProt P20789 1-424, looked up, variant M181A)
# Neurotensin receptor type 1: B1 Neurotensin receptor type 1 with M181A, A362S
# B28: K176A: NTR point mutant (protein, UniProt P20789 1-424, looked up, variant K176A)
# Neurotensin receptor type 1: B1 Neurotensin receptor type 1 with K176A, A362S
# B29: A356L: NTR point mutant (protein, UniProt P20789 1-424, looked up, variant A356L)
# Neurotensin receptor type 1: B1 Neurotensin receptor type 1 with A356L, A362S
# B30: A155L: NTR point mutant (protein, UniProt P20789 1-424, looked up, variant A155L)
# Neurotensin receptor type 1: B1 Neurotensin receptor type 1 with A155L, A362S
# B31: L109A: NTR point mutant (protein, UniProt P20789 1-424, looked up, variant L109A)
# Neurotensin receptor type 1: B1 Neurotensin receptor type 1 with L109A, A362S
# B32: F189A: NTR point mutant (protein, UniProt P20789 1-424, looked up, variant F189A)
# Neurotensin receptor type 1: B1 Neurotensin receptor type 1 with F189A, A362S
# B33: R392A: NTR point mutant (protein, UniProt P20789 1-424, looked up, variant R392A)
# Neurotensin receptor type 1: B1 Neurotensin receptor type 1 with A362S, R392A
# Experiment: Thermostability of neurotensin receptor (NTR) mutants (3H-neurotensin binding)
# Assay type: physicochemical
# Conditions: Ligand(+) format
# Procedure: FIG. 12 Flow chart showing the two different assay formats of ligand (+) and ligand (−) used to determine receptor thermostablity.
# 3. Mutants tested for thermostability by heating in the absence of the agonist were re-tested using a slightly different assay where the mutants were heated in the presence of ^3H-neurotensin (Ligand(+) format in FIG. 12). […] All of these also have increased thermostability. • 5. Preferred combinations are • a. Nag7m F358A+A86L+1260A+F342A Tm 51° C. (neurotensin bound) • b. Nag7n F358A+H103A+1260A+F342A Tm 51° C. (neurotensin bound) • Wildtype NTR has a Tm of 35° C. with neurotensin bound.
row,Molecule,"thermostability, heated in the presence of 3H-neurotensin"
1,B1,improved thermostability
2,B2,improved thermostability
3,B3,improved thermostability
4,B4,improved thermostability

# Same assay, conditions: heated in the absence of the agonist
row,Molecule,"thermostability, 3H-neurotensin (agonist) binding after the heating step"
1,B5,small but significant increase in thermostability
2,B6,small but significant increase in thermostability
3,B7,small but significant increase in thermostability
4,B8,small but significant increase in thermostability
5,B9,small but significant increase in thermostability
6,B1,small but significant increase in thermostability
7,B10,small but significant increase in thermostability
8,B11,small but significant increase in thermostability
9,B12,small but significant increase in thermostability
10,B13,small but significant increase in thermostability
11,B14,small but significant increase in thermostability
12,B15,small but significant increase in thermostability
13,B16,small but significant increase in thermostability
14,B17,small but significant increase in thermostability
15,B18,small but significant increase in thermostability
16,B19,small but significant increase in thermostability
17,B2,small but significant increase in thermostability

row,Molecule,"thermostability, 3H-neurotensin (agonist) binding after the heating step"
1,B20,small but significant increase in thermostability
2,B21,small but significant increase in thermostability
3,B22,small but significant increase in thermostability
4,B3,small but significant increase in thermostability
5,B23,small but significant increase in thermostability
6,B24,small but significant increase in thermostability
7,B25,small but significant increase in thermostability
8,B26,small but significant increase in thermostability
9,B27,small but significant increase in thermostability
10,B28,small but significant increase in thermostability
11,B29,small but significant increase in thermostability
12,B4,small but significant increase in thermostability
13,B30,small but significant increase in thermostability
14,B31,small but significant increase in thermostability
15,B32,small but significant increase in thermostability
16,B33,small but significant increase in thermostability
